Experiments:
[1] = ATPase assay (modified malachite green method); type: biochemical; settings: for microtubule concentration at peak stimulation of ATP turnover: non-hyperbolic, decreases at higher microtubule concentrations
Experimental: ATPase activity was measured by a modified malachite green method (Kodama et al. (1986) J. Biochem. 99: 1465-1472). ATPase reactions of 50-100 μl were carried out in a buffer previously used for measuring the ATPase activity of native katanin [20 mM K-HEPES pH 8.0, 25 mM potassium glutamate 2 mM MgCl2, 10% glycerol (v/v), 0.02% Triton X-100 (w/v), 1 mg/ml BSA] (McNally and Vale (1993) Cell, 75: 419-429), except that soybean trypsin inhibitor (SBTI) was replaced by BSA as a carrier protein because SBTI increased background phosphate contamination. An ATP regenerating system, consisting of 0.5-1.0 mM phosphoenol pyruvate and 2 units of pyruvate kinase, was included to minimize the inhibition by ADP observed previously for native katanin (McNally and Vale (1993) Cell, 75: 419-429). Microtubules were prepared from bovine brain tubulin (Hyman et al. (1990) Meth. Enzymol. 196: 303-319; and Williams and Lee (1982) Meth Enzymol. 85B: 376-385). After assembly, microtubules were sedimented (230,000×g; 10 min), resuspended in ATPase buffer lacking BSA, and the polymers were resuspended by repeated passage through a 27 gauge needle. Microtubule concentration was determined by measuring the absorbance at 275 nm in 6 M guanidine HCl by using a molecular mass of 110 kDa and an extinction coefficient of 1.03 ml mg^−1 cm^−1 (Hackney (1988) Proc. Natl. Acad Sci. USA, 85: 6314-6318). ATPase reactions were carried out at room temperature, and were initiated by addition of katanin.

[2] = system: Taxol-stabilized, rhodamine-labeled microtubules; test: Microscope-based microtubule severing assay; type: biochemical; settings: for time until microtubules were completely disassembled: 0.1 μM protein, 1 mM ATP; for microtubule severing (in words): p60, p60/p80 0.1 μM, p80 0.5 μM (5-fold higher)
Experimental: FIGS. 5A, 5B, and 5C illustrate the activities of recombinant katanin subunits. […] Taxol-stabilized, rhodamine-labeled microtubules were adsorbed onto the surface of a microscope perfusion chamber, and then recombinant katanin subunits were introduced. The time elapsed after perfusing p60/p80 (0.1 μM), p60 (0.1 μM), or p80 (0.5 μM) is shown. The recombinant co-expressed p60/p80 and p60, but not p80, can sever and disassemble microtubules. Scale bar, 10 μm.
Microscope-based severing assays were performed using previously published procedures (McNally and Vale (1993) Cell, 75: 419-429), except that microtubules were immobilized by first perfusing flow cells with a bacterially expressed kinesin mutant that binds strongly to microtubules but is unable to hydrolyze ATP (K560, G234A mutant; R. Vale and E. Taylor, unpublished results). Assays were performed in 20 mM Hepes (pH 7.5), 2 mM MgCl2, 1 mM ATP with an oxygen scavenger system consisting of glucose oxidase (220 μg/ml), catalase (36 μg/ml), glucose (22.5 mM), and 2-mercaptoethanol (71.5 mM). Images were captured using a cooled, slow-scan CCD (Photometerics) and processed using Adobe Photoshop.

[3] = system: DAPI-labeled microtubules; test: DAPI fluorescence microtubule disassembly (severing) assay; type: biochemical, bovine; settings: 0.2 μM protein, 2 μM microtubules
Excerpt: To better compare the microtubule severing activities of p60 and p60/p80, we developed a quantitative microtubule disassembly assay based upon a previous finding that DAPI fluorescence intensity is higher when this dye is bound to polymerized versus free tubulin (Heusele et al. (1987) Eur. J Biochem. 165: 613-620). […] This slower rate of microtubule disassembly is consistent with the previously described 2-fold decrease in ATPase activity of p60 compared with p60/p80.
ATPase activity was measured by a modified malachite green method (Kodama et al. (1986) J. Biochem. 99: 1465-1472). […] Microtubule concentration was determined by measuring the absorbance at 275 nm in 6 M guanidine HCl by using a molecular mass of 110 kDa and an extinction coefficient of 1.03 ml mg^−1 cm^−1 (Hackney (1988) Proc. Natl. Acad Sci. USA, 85: 6314-6318). […]
DAPI severing assays were performed using conditions where the change in fluorescence intensity was linear with the amount of tubulin polymer added (Heusele et al. (1987) Eur. J Biochem. 165: 613-620). […] The reaction volume was 80 μL, and fluorescence intensity was measured by exciting at 370 nm. and measuring the emission at 450 mn using a model 8100 fluorimeter (SLM Instruments) in photon counting mode.

Molecule	ATPase activity (in words) ([1]; baculovirus-expressed subunit alone)	maximal basal and microtubule-stimulated ATPase rates relative to p60/p80 heterodimer ([1]; compared with p60/p80) [fold lower]	microtubule concentration at peak stimulation of ATP turnover [1] [μM tubulin]	time until microtubules were completely disassembled [2] [min]	microtubule severing (in words) [2]	rate of microtubule disassembly compared with p60/p80 [3]	ATP turnover rate ([1]; basal, without microtubules) [ATP/sec/heterodimer]	stimulation of ATPase activity by microtubules ([1]; maximal stimulation) [fold]	basal ATPase activity ([1]; basal) [ATP/katanin/sec]	maximal microtubule-stimulated ATPase rate ([1]; microtubule-stimulated) [ATP/katanin/sec]
p60: S. purpuratus katanin p60 subunit, 516 a.a. AAA ATPase (SEQ ID NO:1), baculovirus-expressed with N-terminal His(6) tag (protein, listed as Strongylocentrotus purpuratus, N-terminal His6 tag; katanin p60 subunit) MSVDEICENTKMGREYALLGNYETSLVYYQGVLQQIQKLLTSVHEPQRKHQWQTIRQELSQEYEHVKNITKTLNGFKSEPAAPEPAPNHRAAPFSHHQHAAKPAAAEPARDPDVWPPPTPVDHRPSPPYQRAARKDPPRRSEPSKPANRAPGNDRGGRGPSDRRGDARSGGGGRGGARGSDKDKNRGGKSDKDKKAPSGEEGDEKKFDPAGYDKDLVENLERDIVQRNPNVHWADIAGLTEAKRLLEEAVVLPLWMPDYFKGIRRPWKGVLMVGPPGTGKTMLAKAVATECGTTFFNVSSASLTSKYHGESEKLVRLLFEMARFYAPSTIFIDEIDSICSKRGTGSEHEASRRVKSELLIQMDGVSGPSAGEESSKMVMVLAATNFPWDIDEALRRRLEKRIYIPLPEIDGREQLLRINLKEVPLADDIDLKSIAEKMDGYSGADITNVCRDASMMAMRRRIQGLRPEEIRHIPKEELNQPSTPADFLLALQKVSKSVGKEDLVKYMAWMEEFGSV	displayed a microtubule-stimulated ATPase activity	2	~2	5	severed microtubules	half as active as p60/p80				
p60/p80: co-expressed recombinant katanin p60/p80 heterodimer complex from baculovirus-infected insect cells (protein) chain 1: HHHHHHMSVDEICENTKMGREYALLGNYETSLVYYQGVLQQIQKLLTSVHEPQRKHQWQTIRQELSQEYEHVKNITKTLNGFKSEPAAPEPAPNHRAAPFSHHQHAAKPAAAEPARDPDVWPPPTPVDHRPSPPYQRAARKDPPRRSEPSKPANRAPGNDRGGRGPSDRRGDARSGGGGRGGARGSDKDKNRGGKSDKDKKAPSGEEGDEKKFDPAGYDKDLVENLERDIVQRNPNVHWADIAGLTEAKRLLEEAVVLPLWMPDYFKGIRRPWKGVLMVGPPGTGKTMLAKAVATECGTTFFNVSSASLTSKYHGESEKLVRLLFEMARFYAPSTIFIDEIDSICSKRGTGSEHEASRRVKSELLIQMDGVSGPSAGEESSKMVMVLAATNFPWDIDEALRRRLEKRIYIPLPEIDGREQLLRINLKEVPLADDIDLKSIAEKMDGYSGADITNVCRDASMMAMRRRIQGLRPEEIRHIPKEELNQPSTPADFLLALQKVSKSVGKEDLVKYMAWMEEFGSV chain 2: HHHHHHMATKRAWKLQELVAHSSNVNCLALGPMSGRVMVTGGEDKKVNLWAVGKQNCIISLSGHTSPVDSVKFNSSEELVVAGSQSGTMKIYDLEPAKIVRTLTGHRNSIRCMDFHPFGEFVASGSTDTNVKLWDVRRKGCIYTYKGHSDQVNMIKFSPDGKWLVTASEDTTIKLWDLTMGKLFQEFKNHTGGVTGIEFHPNEFLLASGSSDRTVQFWDLETFQLVSSTSPGASAVRSISFHPDGSYLFCSSQDMLHAFGWEPIRCFDTFSVGWGKVADTVIASTQLIGASFNATNVSVYVADLSRMSTTGIAQEPQSQPSKTPSGGAEEVPSKPLTASGRKNFVRERPHTTSSKQRQPDVKSEPERQSPTQDEGVKDDDATDIKDPDSYAKIFSPKTRVDHSPERNAQPFPAPLDVPGAQEPEPFKHPPKPAAAAAVAPVSRAPAPSASDWQPAQANPAPNRVPAATKPVPAQEVAPSRKPDPISTIIPSDRNKPANLDMDAFLPPAHAQQAPRVNAPASRKQSDSERIEGLRKGHDSMCQVLSSRHRNLDVVRAIWTAGDAKTSVESVVNMKDQAILVDILNIMLLKKSLWNLDMCVVVLPRLKELLSSKYENYVHTSCACLKLILKNFTSLFNQNIKCPPSGIDITREERYNKCSKCYSYLIATRGYVEEKQHVSGKLGSSFRELHLLLDQLE			~2	5	severed microtubules		0.3	~10		
Katanin: heterodimer of 60 kDa and 80 kDa subunits, microtubule-severing ATPase from sea urchin eggs (protein) chain 1: HHHHHHMSVDEICENTKMGREYALLGNYETSLVYYQGVLQQIQKLLTSVHEPQRKHQWQTIRQELSQEYEHVKNITKTLNGFKSEPAAPEPAPNHRAAPFSHHQHAAKPAAAEPARDPDVWPPPTPVDHRPSPPYQRAARKDPPRRSEPSKPANRAPGNDRGGRGPSDRRGDARSGGGGRGGARGSDKDKNRGGKSDKDKKAPSGEEGDEKKFDPAGYDKDLVENLERDIVQRNPNVHWADIAGLTEAKRLLEEAVVLPLWMPDYFKGIRRPWKGVLMVGPPGTGKTMLAKAVATECGTTFFNVSSASLTSKYHGESEKLVRLLFEMARFYAPSTIFIDEIDSICSKRGTGSEHEASRRVKSELLIQMDGVSGPSAGEESSKMVMVLAATNFPWDIDEALRRRLEKRIYIPLPEIDGREQLLRINLKEVPLADDIDLKSIAEKMDGYSGADITNVCRDASMMAMRRRIQGLRPEEIRHIPKEELNQPSTPADFLLALQKVSKSVGKEDLVKYMAWMEEFGSV chain 2: HHHHHHMATKRAWKLQELVAHSSNVNCLALGPMSGRVMVTGGEDKKVNLWAVGKQNCIISLSGHTSPVDSVKFNSSEELVVAGSQSGTMKIYDLEPAKIVRTLTGHRNSIRCMDFHPFGEFVASGSTDTNVKLWDVRRKGCIYTYKGHSDQVNMIKFSPDGKWLVTASEDTTIKLWDLTMGKLFQEFKNHTGGVTGIEFHPNEFLLASGSSDRTVQFWDLETFQLVSSTSPGASAVRSISFHPDGSYLFCSSQDMLHAFGWEPIRCFDTFSVGWGKVADTVIASTQLIGASFNATNVSVYVADLSRMSTTGIAQEPQSQPSKTPSGGAEEVPSKPLTASGRKNFVRERPHTTSSKQRQPDVKSEPERQSPTQDEGVKDDDATDIKDPDSYAKIFSPKTRVDHSPERNAQPFPAPLDVPGAQEPEPFKHPPKPAAAAAVAPVSRAPAPSASDWQPAQANPAPNRVPAATKPVPAQEVAPSRKPDPISTIIPSDRNKPANLDMDAFLPPAHAQQAPRVNAPASRKQSDSERIEGLRKGHDSMCQVLSSRHRNLDVVRAIWTAGDAKTSVESVVNMKDQAILVDILNIMLLKKSLWNLDMCVVVLPRLKELLSSKYENYVHTSCACLKLILKNFTSLFNQNIKCPPSGIDITREERYNKCSKCYSYLIATRGYVEEKQHVSGKLGSSFRELHLLLDQLE									0.3	3

— US6429304B1, “Nucleic acids encoding a katanin p60 subunit” (The Regents of the University of California, priority 1998, dated 2002)
